Measured values taken from patent US12528864 (GlaxoSmithKline, dated 2026).
Positions count from the first letter of the chain named.

B1: 42Y073-86F08-16 (antibody)
heavy: not shown
light: DIQLTQSPSSLSASVGDRVTITCRASQSISSYLNWYQQKPGKAPKLLIYAASSLQSGVPSRFSGSGSGTDFTLTISSLQPEDFATYYCQQVLHTITFGGGTKVEIKRTVAAPSVFIFPPSDEQLKSGTASVVCLLNNFYPREAKVQWKVDNALQSGNSQESVTEQDSKDSTYSLSSTLTLSKADYEKHKVYACEVTHQGLSSPVTKSFNRGEC
notes: also called 42Y073-88F08-16
B2: 42Y073-1A01-103 (antibody, V domains shown)
VH: QVQLVQSGAEVKKPGASVKVSCKASGYTFTAYQMHWVRQAPGQGLEWMGIINPAGGWTSYAQKFQGRVTMTRDTSTSTVYMELSSLRSEDTAVYYCARETAYYTTKGNWFDPWGQGTLVTVSS
VL: DIQMTQSPSSLSASVGDRVTITCRASQSISSYLNWYQQKPGKAPKLLIYAASSLQSGVPSRFSGSGSGTDFTLTISSLQPEDFATYYCQQSLYPPRTFGGGTKVEIK
notes: Fully human antibody
B3: 42Y073-1A01-85 (antibody, V domains shown)
VH: B2 VH with A31S, Q33P, A54S, W57F, S123A
VL: B2 VL
notes: Fully human antibody
B4: 42Y073-1A01-97 (antibody, V domains shown)
VH: B2 VH with A31R, Y32A, Q33A, W57Y
VL: B2 VL
notes: Fully human antibody
B5: 42Y073-1A01-100 (antibody, V domains shown)
VH: B2 VH with A31T, Q33R, A54S, W57L, S59Q
VL: B2 VL
notes: Fully human antibody
B6: 42Y073-1A01-126 (antibody, V domains shown)
VH: B2 VH with A31R, Q33N, I50W, W57S, S123A
VL: B2 VL
notes: Fully human antibody
B7: 42Y073-1A01-191 (antibody, V domains shown)
VH: B2 VH with A31K, Q33R, A54Q, W57S, S123A
VL: B2 VL
notes: Fully human antibody
B8: 42Y073-86F04-6 (antibody, V domains shown)
VH: QVQLVQSGAEVKKPGSSVKVSCKASGGTFSGHAISWVRQAPGQGLEWMGGIIPIFGRARYAQKFQGRVTITADESTSTAYMELSSLRSEDTAVYYCARLLGESGMDVWGQGTTVTVSS
VL: B2 VL with S91P, L92Y, Y93F, P94S, R96P
notes: Fully human antibody
B9: 42Y073-86F04-3 (antibody, V domains shown)
VH: B8 VH with G31Y, H32N, F55M, R57T
VL: B2 VL with S91P, L92Y, Y93F, P94S, R96P
notes: Fully human antibody
B10: 42Y073-86F04-4 (antibody, V domains shown)
VH: B8 VH with S30E, G31S, H32E
VL: B2 VL with S91P, L92Y, Y93F, P94S, R96P
notes: Fully human antibody
B11: 42Y073-86F04-5 (antibody, V domains shown)
VH: B8 VH with G31S, A58G, R59K
VL: B2 VL with S91P, L92Y, Y93F, P94S, R96P
notes: Fully human antibody
B12: 42Y073-86F04-18 (antibody, V domains shown)
VH: B8 VH with G31S, H32R, F55M, R57T
VL: B2 VL with S91P, L92Y, Y93F, P94S, R96P
notes: Fully human antibody
B13: 42Y073-86F04-33 (antibody, V domains shown)
VH: B8 VH with G31S, H32Y, I52L, R59N
VL: B2 VL with S91P, L92Y, Y93F, P94S, R96P
notes: Fully human antibody
B14: 42Y073-86F04-88 (antibody, V domains shown)
VH: B8 VH with G31S, H32S, R59N
VL: B2 VL with S91P, L92Y, Y93F, P94S, R96P
notes: Fully human antibody
B15: 42Y073-86F08-1 (antibody, V domains shown)
VH: QVQLVQSGAEVKKPGSSVKVSCKASGGTFSSYAISWVRQAPGQGLEWMGGIIPIFGTASYAQKFQGRVTITADESTSTAYMELSSLRSEDTAVYYCARGAGYYGDKDPMDVWGQGTTVTVSS
VL: DIQLTQSPSSLSASVGDRVTITCRASQSISSYLNWYQQKPGKAPKLLIYAASSLQSGVPSRFSGSGSGTDFTLTISSLQPEDFATYYCQQVLHTITFGGGTKVEIK
B16: 42Y073-86F08-3 (antibody, V domains shown)
VH: B15 VH with S30V, S31N, I54A, F55L, S59N
VL: B15 VL
notes: Fully human antibody
B17: 42Y073-86F08-4 (antibody, V domains shown)
VH: B15 VH with S31E, S35H, G50N, S59G
VL: B15 VL
notes: Fully human antibody
B18: 42Y073-86F08-8 (antibody, V domains shown)
VH: B15 VH with S30W, S31L, I54Q, F55L, S59N
VL: B15 VL
notes: Fully human antibody; also called 42Y073-88F08-8
B19: 42Y073-86F08-17 (antibody, V domains shown)
VH: B15 VH with S30R, S31E, I54V, S59N
VL: B15 VL
notes: Fully human antibody; also called 42Y073-88F08-17
B20: 42Y073-86F08-22 (antibody, V domains shown)
VH: B15 VH with S16A, G27Y, S30D, I34M, S35H, S59W
VL: B15 VL
notes: Fully human antibody
B21: 42Y073-86F08-47 (antibody, V domains shown)
VH: B15 VH with S31Q, S35H, G50V, T57K, S59N
VL: B15 VL
notes: Fully human antibody
B22: 42Y073-2B04-46 (antibody, V domains shown)
VH: QVQLQQWGAGLLKPSETLSLTCAVYGGSFRRYYWSWIRQPPGKGLEWIGEIDGWGSTNYNPSLKSRVTISVDTSKNQFSLKLSSVTAADTAVYYCARGGSVDFWSGSDYYYYMDVWGKGATVTVSS
VL: EIVLTQSPATLSLSPGERATLSCRASQSVSSYLAWYQQKPGQAPRLLIYDASKRATGIPARFSGSGSGTDFTLTISSLEPEDFAVYYCQQLDNWPITFGGGTKVEIK
notes: Fully human antibody; also called 42Y073-2804-46

These binders were tested against T1, human CD96v2 expressed on cells (CHO cells; transiently transfected HEK cells) (human, UniProt P40200-2 22-569) (assay: flow cytometry on CHO cells expressing human CD96v2).
T1 construct: whole, on cells; the cell is named under assay; also called CHO-huCD96; hCD96v2
T1 sequence (looked up): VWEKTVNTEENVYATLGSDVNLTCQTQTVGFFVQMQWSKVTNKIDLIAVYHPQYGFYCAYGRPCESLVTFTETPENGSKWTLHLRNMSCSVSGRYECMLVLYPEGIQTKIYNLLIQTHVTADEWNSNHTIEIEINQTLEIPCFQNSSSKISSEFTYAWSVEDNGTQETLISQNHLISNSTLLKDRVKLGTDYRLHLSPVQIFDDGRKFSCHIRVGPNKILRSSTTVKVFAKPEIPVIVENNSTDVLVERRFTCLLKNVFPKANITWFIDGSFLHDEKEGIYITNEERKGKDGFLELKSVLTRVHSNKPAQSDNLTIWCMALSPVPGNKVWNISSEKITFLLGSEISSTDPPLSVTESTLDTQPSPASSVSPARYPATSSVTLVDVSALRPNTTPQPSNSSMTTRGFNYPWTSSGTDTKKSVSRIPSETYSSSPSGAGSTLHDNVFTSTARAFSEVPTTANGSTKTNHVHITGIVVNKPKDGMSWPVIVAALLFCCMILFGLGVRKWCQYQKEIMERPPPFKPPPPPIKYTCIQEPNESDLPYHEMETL
Binder B1 has an EC50 of 0.03 nM. B2 was tested, and the EC50 was 0.02 nM. B3 gave an EC50 of 0.47 nM. In the case of B4, the EC50 is reported as 0.77 nM. B5 was tested, and the EC50 was 0.02 nM. B6 gave an EC50 of 0.02 nM. For B7, the EC50 was 0.01 nM. For B8, the EC50 was 0.06 nM. B9 was tested, and the EC50 was 0.04 nM. B10 gave an EC50 of 0.04 nM. B11 was tested, and the EC50 was 0.05 nM. Work on B12 yielded an EC50 of 0.07 nM. B13 was tested, and the EC50 was 0.04 nM. In the case of B14, the EC50 is reported as 0.05 nM. Binder B15 has an EC50 of 0.07 nM. With B16 the EC50 was 0.04 nM. For B17, the EC50 was 0.04 nM. B18 showed an EC50 of 0.17 nM. B19 was tested, and the EC50 was 0.1 nM. Work on B20 yielded an EC50 of 0.03 nM. In the case of B21, the EC50 is reported as 0.05 nM. Binder B22 has an EC50 of 1.06 nM.

These binders were tested against T2, cynomolgus monkey CD96v2 expressed on cells (CHO cells; transiently transfected HEK cells) (cynomolgus monkey, UniProt A0A2K5TWV6 22-569) (assay: flow cytometry on CHO cells expressing cynomolgus CD96v2).
T2 construct: the cell is named under assay; also called CHO-cyCD96; Cyno CD96v2
T2 sequence: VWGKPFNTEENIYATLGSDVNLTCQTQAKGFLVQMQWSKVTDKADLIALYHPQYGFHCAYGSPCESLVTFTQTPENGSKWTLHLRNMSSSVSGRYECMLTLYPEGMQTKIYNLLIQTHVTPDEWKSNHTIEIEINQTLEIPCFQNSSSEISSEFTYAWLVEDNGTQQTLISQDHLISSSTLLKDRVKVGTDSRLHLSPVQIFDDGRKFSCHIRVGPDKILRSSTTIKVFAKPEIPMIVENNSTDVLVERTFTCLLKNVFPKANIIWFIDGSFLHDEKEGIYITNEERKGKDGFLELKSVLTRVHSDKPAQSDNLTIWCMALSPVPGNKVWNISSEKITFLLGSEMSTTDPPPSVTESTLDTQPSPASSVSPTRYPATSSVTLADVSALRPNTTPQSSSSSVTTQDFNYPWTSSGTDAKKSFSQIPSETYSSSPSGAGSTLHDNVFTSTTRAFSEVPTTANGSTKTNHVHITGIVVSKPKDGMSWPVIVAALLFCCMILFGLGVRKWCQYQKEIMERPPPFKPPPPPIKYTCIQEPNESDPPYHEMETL
B1 was tested, and the EC50 was 0.04 nM. B2 was tested, and the EC50 was 0.03 nM. B3 showed an EC50 of 0.01 nM. B4 gave an EC50 of 0.02 nM. B5 was tested, and the EC50 was 0.04 nM. B6 was tested, and the EC50 was 0.03 nM. In the case of B7, the EC50 is reported as 0.02 nM. B8 gave an EC50 of 0.11 nM. B9 was tested, and the EC50 was 0.04 nM. B10 gave an EC50 of 0.07 nM. For B11, the EC50 was 0.07 nM. B12 was tested, and the EC50 was 0.11 nM. With B13 the EC50 was 0.05 nM. For B14, the EC50 was 0.16 nM. In the case of B17, the EC50 is reported as 0.07 nM. B18 gave an EC50 of 0.03 nM. B19 was tested, and the EC50 was 0.03 nM. B20 showed an EC50 of 0.09 nM. In the case of B21, the EC50 is reported as 0.06 nM. In the case of B22, the EC50 is reported as 0.04 nM.

Each binder was assayed against T1, human CD96v2 expressed on cells (CHO …) (assay: flow cytometry, inhibition of human CD155-Fc-AF647 binding to CHO cells expressing human CD96v2; competitor CD155-Fc).
In the case of B1, the IC50 is reported as 0.78 nM. B2 was tested, and the IC50 was 0.03 nM. Work on B3 yielded an IC50 of 0.03 nM. Binder B4 has an IC50 of 0.03 nM. Binder B5 has an IC50 of 0.06 nM. B6 was tested, and the IC50 was 0.1 nM. For B7, the IC50 was 0.03 nM. B8 was tested, and the IC50 was 0.25 nM. B9 showed an IC50 of 0.31 nM. In the case of B10, the IC50 is reported as 0.18 nM. B11 was tested, and the IC50 was 0.38 nM. Work on B12 yielded an IC50 of 0.59 nM. B13 showed an IC50 of 0.71 nM. B14 showed an IC50 of 0.21 nM. B15 was tested, and the IC50 was 0.33 nM. B16 showed an IC50 of 0.28 nM. B17 showed an IC50 of 0.38 nM. With B18 the IC50 was 0.93 nM. B19 was tested, and the IC50 was 0.52 nM. B20 gave an IC50 of 0.41 nM. Work on B21 yielded an IC50 of 0.17 nM. Binder B22 has an IC50 of 0.4 nM.
